From patent publication US20250011410A1 (INVETX, published 2025)
Where “and” joins values, the source holds several entries; their conditions need not be identical. Equal values may be shown once.

The binders below were run against T1, canine NGF tagged at the C-terminus with the Flag tag (canine, UniProt A0A8I3PYI3 122-241) (assay: SPR off-rate screen, Fab-SASA on BSA chip).
T1 construct: mature; Expressed with baculovirus technology; also called feline NGF (processed form identical)
T1 sequence (A0A8I3PYI3 entry or part of it): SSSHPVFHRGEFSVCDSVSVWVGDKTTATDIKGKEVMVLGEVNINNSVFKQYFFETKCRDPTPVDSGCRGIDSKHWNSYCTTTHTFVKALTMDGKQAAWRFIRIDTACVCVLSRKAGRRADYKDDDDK

Binder	Kd	Ratio WT-kd/clone-kd	koff	kon
felinized clone 101 Fab-SASA variant D104E (VH) (Fab, V domains shown, not shown: small tags and cut ends) VH: DVQLVESGGDLVKPGGSLRLTCVASGLSLTSSSMSWVRQAPGKGLQWVSTIYSNGGTYYTDSVKGRFTISKDNAENTLYLQMNNLKTEDTATYYCASIYYYDAEYLHWYFDFWGQGALVTVSS VL: EIQMTQSPTSLSASVGDRVTITCRASEGISNNLSWYQQTPGKAPKLLIYATSNLHSGVPSRFSGSGSGTDFTLTISSLQPEDFATYYCQQGYKWPLTFGGGTKLEITR	1.8 nM	2.21	0.000426 s⁻¹	237000 M⁻¹ s⁻¹
felinized clone 101 Fab-SASA variant F112N (VH) (Fab, V domains shown, not shown: small tags and cut ends) VH: DVQLVESGGDLVKPGGSLRLTCVASGLSLTSSSMSWVRQAPGKGLQWVSTIYSNGGTYYTDSVKGRFTISKDNAENTLYLQMNNLKTEDTATYYCASIYYYDADYLHWYFDNWGQGALVTVSS VL: EIQMTQSPTSLSASVGDRVTITCRASEGISNNLSWYQQTPGKAPKLLIYATSNLHSGVPSRFSGSGSGTDFTLTISSLQPEDFATYYCQQGYKWPLTFGGGTKLEITR	1.85 nM	1.47	0.000643 s⁻¹	347000 M⁻¹ s⁻¹
felinized clone 101 Fab-SASA variant H55I (VL) (Fab, V domains shown, not shown: small tags and cut ends) VH: DVQLVESGGDLVKPGGSLRLTCVASGLSLTSSSMSWVRQAPGKGLQWVSTIYSNGGTYYTDSVKGRFTISKDNAENTLYLQMNNLKTEDTATYYCASIYYYDADYLHWYFDFWGQGALVTVSS VL: EIQMTQSPTSLSASVGDRVTITCRASEGISNNLSWYQQTPGKAPKLLIYATSNLISGVPSRFSGSGSGTDFTLTISSLQPEDFATYYCQQGYKWPLTFGGGTKLEITR	1.31 nM	2.16	0.000436 s⁻¹	334000 M⁻¹ s⁻¹
felinized clone 101 Fab-SASA variant K64D (VH) (Fab, V domains shown, not shown: small tags and cut ends) VH: DVQLVESGGDLVKPGGSLRLTCVASGLSLTSSSMSWVRQAPGKGLQWVSTIYSNGGTYYTDSVDGRFTISKDNAENTLYLQMNNLKTEDTATYYCASIYYYDADYLHWYFDFWGQGALVTVSS VL: EIQMTQSPTSLSASVGDRVTITCRASEGISNNLSWYQQTPGKAPKLLIYATSNLHSGVPSRFSGSGSGTDFTLTISSLQPEDFATYYCQQGYKWPLTFGGGTKLEITR	1.63 nM	1.7	0.000554 s⁻¹	340000 M⁻¹ s⁻¹
felinized clone 101 Fab-SASA variant K64E (VH) (Fab, V domains shown, not shown: small tags and cut ends) VH: DVQLVESGGDLVKPGGSLRLTCVASGLSLTSSSMSWVRQAPGKGLQWVSTIYSNGGTYYTDSVEGRFTISKDNAENTLYLQMNNLKTEDTATYYCASIYYYDADYLHWYFDFWGQGALVTVSS VL: EIQMTQSPTSLSASVGDRVTITCRASEGISNNLSWYQQTPGKAPKLLIYATSNLHSGVPSRFSGSGSGTDFTLTISSLQPEDFATYYCQQGYKWPLTFGGGTKLEITR	2.42 nM	1.98	0.000476 s⁻¹	196000 M⁻¹ s⁻¹
felinized clone 101 Fab-SASA variant G55Y (VH) (Fab, V domains shown, not shown: small tags and cut ends) VH: DVQLVESGGDLVKPGGSLRLTCVASGLSLTSSSMSWVRQAPGKGLQWVSTIYSNYGTYYTDSVKGRFTISKDNAENTLYLQMNNLKTEDTATYYCASIYYYDADYLHWYFDFWGQGALVTVSS VL: EIQMTQSPTSLSASVGDRVTITCRASEGISNNLSWYQQTPGKAPKLLIYATSNLHSGVPSRFSGSGSGTDFTLTISSLQPEDFATYYCQQGYKWPLTFGGGTKLEITR	1.83 nM	2.25	0.000419 s⁻¹	229000 M⁻¹ s⁻¹
felinized clone 101 Fab-SASA variant L54H (VL) (Fab, V domains shown, not shown: small tags and cut ends) VH: DVQLVESGGDLVKPGGSLRLTCVASGLSLTSSSMSWVRQAPGKGLQWVSTIYSNGGTYYTDSVKGRFTISKDNAENTLYLQMNNLKTEDTATYYCASIYYYDADYLHWYFDFWGQGALVTVSS VL: EIQMTQSPTSLSASVGDRVTITCRASEGISNNLSWYQQTPGKAPKLLIYATSNHHSGVPSRFSGSGSGTDFTLTISSLQPEDFATYYCQQGYKWPLTFGGGTKLEITR	1.65 nM	1.68	0.00056 s⁻¹	340000 M⁻¹ s⁻¹
felinized clone 101 Fab-SASA variant D104N (VH) (Fab, V domains shown, not shown: small tags and cut ends) VH: DVQLVESGGDLVKPGGSLRLTCVASGLSLTSSSMSWVRQAPGKGLQWVSTIYSNGGTYYTDSVKGRFTISKDNAENTLYLQMNNLKTEDTATYYCASIYYYDANYLHWYFDFWGQGALVTVSS VL: EIQMTQSPTSLSASVGDRVTITCRASEGISNNLSWYQQTPGKAPKLLIYATSNLHSGVPSRFSGSGSGTDFTLTISSLQPEDFATYYCQQGYKWPLTFGGGTKLEITR	1.87 nM	2.11	0.000446 s⁻¹	239000 M⁻¹ s⁻¹
felinized clone 101 Fab-SASA variant N31Q (VL) (Fab, V domains shown, not shown: small tags and cut ends) VH: DVQLVESGGDLVKPGGSLRLTCVASGLSLTSSSMSWVRQAPGKGLQWVSTIYSNGGTYYTDSVKGRFTISKDNAENTLYLQMNNLKTEDTATYYCASIYYYDADYLHWYFDFWGQGALVTVSS VL: EIQMTQSPTSLSASVGDRVTITCRASEGISQNLSWYQQTPGKAPKLLIYATSNLHSGVPSRFSGSGSGTDFTLTISSLQPEDFATYYCQQGYKWPLTFGGGTKLEITR	1.47 nM	1.96	0.00048 s⁻¹	327000 M⁻¹ s⁻¹
felinized clone 101 Fab-SASA variant D104K (VH) (Fab, V domains shown, not shown: small tags and cut ends) VH: DVQLVESGGDLVKPGGSLRLTCVASGLSLTSSSMSWVRQAPGKGLQWVSTIYSNGGTYYTDSVKGRFTISKDNAENTLYLQMNNLKTEDTATYYCASIYYYDAKYLHWYFDFWGQGALVTVSS VL: EIQMTQSPTSLSASVGDRVTITCRASEGISNNLSWYQQTPGKAPKLLIYATSNLHSGVPSRFSGSGSGTDFTLTISSLQPEDFATYYCQQGYKWPLTFGGGTKLEITR	5.45 nM	2.84	0.000332 s⁻¹	60900 M⁻¹ s⁻¹
felinized clone 101 Fab-SASA variant F112P (VH) (Fab, V domains shown, not shown: small tags and cut ends) VH: DVQLVESGGDLVKPGGSLRLTCVASGLSLTSSSMSWVRQAPGKGLQWVSTIYSNGGTYYTDSVKGRFTISKDNAENTLYLQMNNLKTEDTATYYCASIYYYDADYLHWYFDPWGQGALVTVSS VL: EIQMTQSPTSLSASVGDRVTITCRASEGISNNLSWYQQTPGKAPKLLIYATSNLHSGVPSRFSGSGSGTDFTLTISSLQPEDFATYYCQQGYKWPLTFGGGTKLEITR	1.39 nM	1.71	0.000552 s⁻¹	398000 M⁻¹ s⁻¹
felinized clone 101 Fab-SASA variant D104Q (VH) (Fab, V domains shown, not shown: small tags and cut ends) VH: DVQLVESGGDLVKPGGSLRLTCVASGLSLTSSSMSWVRQAPGKGLQWVSTIYSNGGTYYTDSVKGRFTISKDNAENTLYLQMNNLKTEDTATYYCASIYYYDAQYLHWYFDFWGQGALVTVSS VL: EIQMTQSPTSLSASVGDRVTITCRASEGISNNLSWYQQTPGKAPKLLIYATSNLHSGVPSRFSGSGSGTDFTLTISSLQPEDFATYYCQQGYKWPLTFGGGTKLEITR	2.17 nM	1.97	0.000478 s⁻¹	220000 M⁻¹ s⁻¹
felinized clone 101 Fab-SASA variant G55R (VH) (Fab, V domains shown, not shown: small tags and cut ends) VH: DVQLVESGGDLVKPGGSLRLTCVASGLSLTSSSMSWVRQAPGKGLQWVSTIYSNRGTYYTDSVKGRFTISKDNAENTLYLQMNNLKTEDTATYYCASIYYYDADYLHWYFDFWGQGALVTVSS VL: EIQMTQSPTSLSASVGDRVTITCRASEGISNNLSWYQQTPGKAPKLLIYATSNLHSGVPSRFSGSGSGTDFTLTISSLQPEDFATYYCQQGYKWPLTFGGGTKLEITR	1.23 nM	6.41	0.000147 s⁻¹	120000 M⁻¹ s⁻¹
felinized clone 101 Fab-SASA variant H55M (VL) (Fab, V domains shown, not shown: small tags and cut ends) VH: DVQLVESGGDLVKPGGSLRLTCVASGLSLTSSSMSWVRQAPGKGLQWVSTIYSNGGTYYTDSVKGRFTISKDNAENTLYLQMNNLKTEDTATYYCASIYYYDADYLHWYFDFWGQGALVTVSS VL: EIQMTQSPTSLSASVGDRVTITCRASEGISNNLSWYQQTPGKAPKLLIYATSNLMSGVPSRFSGSGSGTDFTLTISSLQPEDFATYYCQQGYKWPLTFGGGTKLEITR	0.935 nM	3.02	0.000312 s⁻¹	333000 M⁻¹ s⁻¹
felinized clone 101 Fab-SASA variant F112E (VH) (Fab, V domains shown, not shown: small tags and cut ends) VH: DVQLVESGGDLVKPGGSLRLTCVASGLSLTSSSMSWVRQAPGKGLQWVSTIYSNGGTYYTDSVKGRFTISKDNAENTLYLQMNNLKTEDTATYYCASIYYYDADYLHWYFDEWGQGALVTVSS VL: EIQMTQSPTSLSASVGDRVTITCRASEGISNNLSWYQQTPGKAPKLLIYATSNLHSGVPSRFSGSGSGTDFTLTISSLQPEDFATYYCQQGYKWPLTFGGGTKLEITR	1.41 nM and 2.41 nM	–	0.000399 s⁻¹ and 0.000708 s⁻¹	284000 M⁻¹ s⁻¹ and 294000 M⁻¹ s⁻¹
felinized clone 101 Fab-SASA variant N53H (VL) (Fab, V domains shown, not shown: small tags and cut ends) VH: DVQLVESGGDLVKPGGSLRLTCVASGLSLTSSSMSWVRQAPGKGLQWVSTIYSNGGTYYTDSVKGRFTISKDNAENTLYLQMNNLKTEDTATYYCASIYYYDADYLHWYFDFWGQGALVTVSS VL: EIQMTQSPTSLSASVGDRVTITCRASEGISNNLSWYQQTPGKAPKLLIYATSHLHSGVPSRFSGSGSGTDFTLTISSLQPEDFATYYCQQGYKWPLTFGGGTKLEITR	1.95 nM	1.5	0.000627 s⁻¹	322000 M⁻¹ s⁻¹
felinized clone 101 Fab-SASA variant H55L (VL) (Fab, V domains shown, not shown: small tags and cut ends) VH: DVQLVESGGDLVKPGGSLRLTCVASGLSLTSSSMSWVRQAPGKGLQWVSTIYSNGGTYYTDSVKGRFTISKDNAENTLYLQMNNLKTEDTATYYCASIYYYDADYLHWYFDFWGQGALVTVSS VL: EIQMTQSPTSLSASVGDRVTITCRASEGISNNLSWYQQTPGKAPKLLIYATSNLLSGVPSRFSGSGSGTDFTLTISSLQPEDFATYYCQQGYKWPLTFGGGTKLEITR	1.58 nM	2.26	0.000418 s⁻¹	264000 M⁻¹ s⁻¹
felinized clone 101 Fab-SASA variant F112H (VH) (Fab, V domains shown, not shown: small tags and cut ends) VH: DVQLVESGGDLVKPGGSLRLTCVASGLSLTSSSMSWVRQAPGKGLQWVSTIYSNGGTYYTDSVKGRFTISKDNAENTLYLQMNNLKTEDTATYYCASIYYYDADYLHWYFDHWGQGALVTVSS VL: EIQMTQSPTSLSASVGDRVTITCRASEGISNNLSWYQQTPGKAPKLLIYATSNLHSGVPSRFSGSGSGTDFTLTISSLQPEDFATYYCQQGYKWPLTFGGGTKLEITR	1.95 nM	1.48	0.000639 s⁻¹	328000 M⁻¹ s⁻¹
